Results taken from patent US20190187132A1.
Like-named read-outs stand apart in the source and are kept apart here.

Columns and labels:
[1] = target: Trichinella spiralis E/S antigen
[2] = target: Trichinella spiralis lysate
[3] = target: Trichinella spiralis lysate; remark: listed apart in the source

B1: Anti-[TRISP][C9] (antibody, V domains shown)
VH: AVTLDESGGGLQTPGGALSLVCKASGFSISSYSMQWVRQAPGKGLEWVAGIYYDGNTWYAPAVKGRATISRDNGQSTVRLRLNNLRAEDTATYFCAKYAGGYSIDAWGHGTEVIVSS
VL: ALTQPSSVSANPGETVKITCSGSSGSYGWYQQKSPGSGPVTVIYYNDKRPSDIPSRFSGSASGSTATLTITGVQAEDEAVYFCGGYDSSTYVGIFGAGTTLTVL
[1]
  detection limit: 6 ng/mL

B2: Anti-[TRISP][18H1] (antibody, V domains shown)
VH: QVQLKESGPGLVQPSQTLSLTCTVSGLSLTSNSVGWIRQPPGKGLEWMGIIWSNGGTDYNSAIKSRLSISRDTSKSQVFLKMHSLQTEDTAMYFCARGPYYGSYRLGYFDYWGQGVMVTVSS
VL: DVVMTQSPSSLAVSAGETVTLNCQSSQSLLYSGTQNNYLAWYQQKPGQSPKLLISWASTRQSGVPLRFIGSGSGTDFTLTITSVQAEDLAIYYCQQFYDTPLTFGSGTKLEIK
[2]
  detection limit: 1 ng/mL
[3]
  detection limit: 10 µg/mL
